Experiment in all cases: Kinetic parameters for degradation of synthetic substrates by the BrAAP component
Assay type in all cases: biochemical, bovine

Substrate in series [1]: CC(C)C[C@H](NC(=O)OCc1ccccc1)C(=O)NCC(=O)N[C@@H](C)C(=O)N[C@@H](CC(C)C)C(=O)N[C@@H](C)C(=O)Nc1ccc(C(=O)O)cc1
The note with it: other: [S] 1.6-8.0; mean of 2 determinations; from plots of 1/v vs 1/s. An excerpt:
(§1) A coupled two step reaction in the presence of excess aminopeptidase N (AN) was used for the determination of the BrAAP and SNAAP activities as described previously (Orlowski et al., Biochemistry 32:1563-1572 (1993)). Aminopeptidase N was purified from hog kidneys as described by Pfleiderer, Meth. Enzymol. 19:514-521 (1970) and freed from the contaminating metalloendopeptidase (EC 3.4.24.11) as previously described (Almenoff & Orlowski, Biochemistry 22:590-599 (1983)).
(§2) The flexibility of the amino acid residue in the P4 position of the inhibitors of the present invention is based on results of substrate specificity studies of the BrAAP component. Activities towards various analogs of the prototypic BrAAP substrate Cbz-Gly-Pro-Ala-Leu-Gly-pAB were determined using the coupled two-step reaction carried out in the presence of AN, as described in Example 4. The BrAAP substrates tested included the following:
(§3) Data represent mean values for 2 separate determinations. For substrates
(§4) with MichaelisMenten kinetics, Km and kcat were determined from
(§5) the regression line fitted to plots of 1/v vs 1/s. Kcat was estimate
(§6) assuming a molecular mabs of 700 KDa and assuming one active site per
(§7) molecule. […] The apparent Km for
(§8) this substrate is taken as the substrate concentration at half of the
(§9) Vmax observed. kcat for this substrate was calculated assuming
(§10) Vmax of 300 U/mg and assuming one active site per molecule of MPC.

Substrate in series [2]: CC(C)C[C@H](NC(=O)[C@H](C)NC(=O)CNC(=O)CNC(=O)OCc1ccccc1)C(=O)N[C@@H](C)C(=O)Nc1ccc(C(=O)O)cc1
The note with it: other: [S] 0.8-4.8; sigmoidal kinetics; substrate concentration at half of the Vmax observed.
Description: as §1, §2, §3, §4, §5, §6, §7, §8, §9, §10

Substrate in series [3]: CC(C)C[C@H](NC(=O)[C@H](C)NC(=O)CNC(=O)[C@@H]1CCCN1C(=O)OCc1ccccc1)C(=O)N[C@@H](C)C(=O)Nc1ccc(C(=O)O)cc1
The note with it: other: [S] 1.6-8.0; mean of 2 determinations; from plots of 1/v vs 1/s.
Description: as §1, §2, §3, §4, §5, §6, §7, §8, §9, §10

B1: BRAAP component of the MPC (Bos taurus) (protein)
chain 1: TTTLAFKFRHGVIVAADSRATAGAYIASQTVKKVIEINPYLLGTMAGGAADCSFWERLLARQCRIYELRNKERISVAAASKLLANMVYQYKGMGLSMGTMICGWDKRGPGLYYVDSEGNRISGATFSVGSGSVYAYGVMDRGYSYDLEVEEAYDLARRAIYQATYRDAYSGGSVSLYHVREDGWIRVSSDNVADLHDKYSGSTH
chain 2: TTIMAVQFDGGVVLGADSRTTTGSYIANRVTDKLTPIHDRIFCCRSGSAADTQAVADAVTYQLGFHSIELNEPPLVHTAASLFKEMCYRYREDLMAGIIIAGWDPQEGGQVYSVPMGGMMVRQPFAIGGSGSSYIYGYVDATYREGMTKEECLQFTANALALAMERDGSSGGVIRLAAIAEPGVERQVLLGDQIPKFTIATLPPL
chain 3: TTIAGVVYKDGIVLGADTRATEGMVVADKNCSKIHFISPNIYCCGAGTAADTDMTTQLISSNLELHSLSTGRLPRVVTANRMLKQMLFRYQGYIGAALVLGGVDVTGPHLYSIYPHGSTDKLPYVTMGSGSLAAMAVFEDKFRPDMEEEEAKKLVSEAIAAGIFNDLGSGSNIDLCVISKSKLDFLRPYSVPNKKGTRFGRYRCEKGTNAVLTEKVTTLEIEVLEETVQTMDTS
notes: The MPC was isolated from frozen bovine pituitaries; tissue PelFreeze, Inc. (Rogers, Ark.) (supplier of the tissue; the enzyme was purified in house); host or cells: bovine pituitaries
With B1, in series [1], the Km amounted to 30 mM, the kcat amounted to 24 s⁻¹ and the kcat/Km is 820 M⁻¹ s⁻¹. In series [2], the Km worked out at 2.5 mM, the catalytic constant (kcat) was 58 s⁻¹ and the specificity constant (kcat/Km) is 23,300 s^-1 M^-1. In addition, in series [3], the Km came to 8.7 mM, the kcat turned out to be 8.4 s⁻¹ and the kcat/Km came to 960 M⁻¹ s⁻¹.

The record behind these values is patent publication US5580854A, “Substrate-related peptidyl-aldehyde inhibitors of the proteolytic activity of the multicatalytic proteinase complex” (Mount Sinai School of Medicine of The City University of …, priority 1994, dated 1996).
